The nanobody polyreactivity screen of Harvey et al. (2022)

Test: yeast display, Sf9 membrane polyspecificity reagent, FACS + sequencing; frameworks hold sequencing errors
How it was run: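 Galactose-induced (36–48 hours) yeast carrying a synthetic nanobody display library were exposed to 10% biotinylated, detergent-solubilized Sf9 membrane reagent at 4 °C for 1 hour. FACS followed streptavidin microbead enrichment, using low and high (top ~1%) gates for expression (anti-HA) and reagent binding (streptavidin). Colony PCR, MiSeq 2 × 250 sequencing and CDR-length filtering followed. Labels for polyreactivity reflect the gate of origin.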

| Sequence | polyreactivity (PSR sort gate) |
| --- | --- |
| QVQLVESGGGLVQAGGSLRLSCAASGSTVYVYAMGWYRQAPGKERELVATISSSGAITYYADSVKGRFTISRDNAKNTVYLQMNSLKPEDTAVYYCARTGSLLSQVWYNYWGQGTQVTVSS | low polyreactivity |
| QVQLVESGGGLVQERGSLRLSCAASGSIFIPYARGWYRQAPGKERELVAAISLGDGKTYYADSVKGRFTISRDNAKNTVYLQMNSLKPEDTAVYYCNAVPRKFGDEYWGQGTQVTVSS | low polyreactivity |
| QVQLVESGGGLVQAGGSLRLSCAAYGSTFYAYAMGWYRQAPGKERELVAAIDSGGSTYYADSVKGRFTISRDNAKNTVYLQMNSLKPEDTAVYYCAVRHRYTRAYWGRDYWGQGTQVTVSS | low polyreactivity |
| QVQLVESGGGLVQAGGSLRLTCAASGSIFGGYTMGWYRQAPGKERELVAAISRRGGNTYYADSVKGRFTISRDNAKYTVYLQMNSLKPEDTAVYYCNARPTTYNYDYWGQGTQVTVSS | high polyreactivity |
| QVQLVESGGGLVQAGGSLRLSCAASGIIFFFYDMGWYRQSPGKERELVAAISDDGVSTDYADSVKGRFTISRDNAKNTVYLQMNSLKPEDTAVYYCAAKTERVYPWFSFGYWVQGTQVTVSS | low polyreactivity |
| QVQHEESGGGLVQAGGSLRISCAASGTTFFTYAMGWYRPAPGKEREFVAAISWSDDSTYYADSVKGRFTISRDYAKNTVYLQMNSLKPEDTAVYYCAAEWGQRGGGGYYYWGQGTQVTVSS | low polyreactivity |
| QVQLVESGGGLVQAGGSLRLSFAASGSTFSSNAMGWYRQAPGKERELVAAISVNGGSTNYADSVKGRFTISRDNAKNTVYLQMNSLKPEDTAVYYCDAEPDKVAFYRGDYWGQGTQVTVSS | low polyreactivity |
| QVQLVESGGRLVQAGGSLRLSCPASGSTFGVYAMGWYRPEPGKEREFVAAINYSGRTYYADSVKGLFTISRDNAKITVYLQMNSLKPEDTAVYYCNADFFYRYYGAYDYWGQGNQVTVSS | high polyreactivity |
| QVQLVESGGGLVQAGGSLRLSCAASGSTFTTYGMGWYRQAPGKERELVAGITFRGGSTYYADSVKGRFTISRDNAKNTVYLQMNSLKPEDTAVYYCAAERWRWYYSWTMDYWGQGTQVTVSS | high polyreactivity |
| QDQLVESGGGLVQAGGSLRLSCAASGSTFQWYAMVWYRQAPGKERELVAAINKSGGTTYYADSVKGRFTISRDNAKNTVYLQMNRLKPEDTAVYYCATDNPVVYQPGNLDYWVQGTQVTVSS | low polyreactivity |
| QVQLVESGGGLVQAGGSRRLSCAASGFIFTKYTMGWYRQAPGKERELVAAIRSDGVRTYYADSVKGRFTISRDNAKNTVYLQMNSLKPEDTAVYYCAARSLRYGRGMYYWGQGTQVTVSS | high polyreactivity |
| QVQLVESGGGLVQAGGSLRLSCAASGSTFILNYMGWYRQAPGKERELVAAIDWGDSTTYYADSVKGRFTISRDNAKNTVYLQMNSLKPEDTAVYYCAADFAVSAFTRYPPTEYWGQGTQVTVSS | high polyreactivity |
| QVQLVESGGGLVQAGGSLRLSCAASGITFQNYAMGWYRQAPGKERELVAAITGRGGSTYYADSVKGRFTISRDNAKHTVYLQMNSLKPEDTAVYYCATDRRGYRDDYWGQGTQVTVSS | high polyreactivity |
| QVQLVESGGGLVQAGGSLRLSCAASGIFWYYAMGWYRQAPGKERELVAAISSGGSTYYADSVKGRFTISRDNAKNTVSLQMNSLKPEDTAVYYCNAVYWKASHYGYGYWGQGTQVTVSS | high polyreactivity |
| QVQLVESGGGLVQAGGSLRLSCAASGRTFVVNAMGWYRQAPGKERELVATIRWSGGRTYYADSVKGRFTISRDNAKNTVYLQMNSLKPEDTAVYYCAADFKGLFSSELDYWGQGTQVTVSS | low polyreactivity |
| QVQLVESGGGLVQAGGSLRLSCAASGSTFSSYAMGWYIQAPGKERELVAAITSSGGTTYYSDSVKGRFTISRDNAKNTVYLQMNSLKPEDTAVYYCAAADVIFWLYYYWGQGTQVTVSS | low polyreactivity |
| QVQLVESGGGLVQAGGSLRLSCAASGRIFDVYAMGWYRQSPGKERELVAAISWSGSSTYYADSVKGRFTISRDTAKNTVYFQMNSLKPEDTAVYYCAADYPKTYTSKFNYWGQGTQVTVSS | high polyreactivity |
| QVQLVESGGGLVQAGGSLRLSCAAYGSIFTRNAMGWYRQAPGKERELVATITSNDGSTNYADSVKGRFTISRDNAKNTVYLQMISLKPEDTAVYYCNRSYGVYSEFDYWGQGTQVTVSS | low polyreactivity |
| QVQLVESGGGLVQAGGSLRLSCAASGRIFDRNAMGWYRQAPGKERELVARIDPGDDTNYADSVKGRFTISRDNAKHTVYLQMHSLKPEDTAVYYCATDPDYVLFRTAYYEYDYWGQGTQVTVSS | low polyreactivity |
| QVQLVETGGGLVQAGGSLRLSCAASGRIFSNYVMGLYRQAPVKERELVAAISGSGGRTYYADSVKGRFTISRDNAKNTVYVQMNSRTPEDTAVYYCAARRSERDRYGGYYYWGQGTQVTVSS | high polyreactivity |
| QVQLVESGGGLVQAGGSLRLSCAASGFIFLIYAIGWYRQAPGTERELVATIRYSGGRTYYADSVKGRFTISRDNAKNTVYLQMNSLKPEDTAVYYCAARSVWFSGQGRMNYWGQGTQVTGSS | high polyreactivity |
| QVQLVESGGGLVQAGGSLRLSCAASGRTFDRNTMGWYRQAPGKERELVAAISGSSARTYYADSVKGRFTISRDNAKNTVYLQMNSLKPEDTAVYYCNAEYGARAQHYEGDSWGQGTQVTVSS | high polyreactivity |

| Sequence | polyreactivity (PSR sort gate) |
| --- | --- |
| QVQLVESGGGLVQAGGSLRLSCAASGSIYRWYAMGWYRQAPGKERELVASISSGTRTNYADSVKGRFTISRDNAKNTVYLQMNSLKPEDTAVYYCAAPYVKRWWGYGYWGQGTQVTVSS | high polyreactivity |
| QVQHVESGGCLVQAGGSLRLSCAASGITFEWYAMGWYRQAPGKESELVADITSGDSTNYADSVKGRFTISRDNAQNTVYLQMNSLKPEDTAVYYWAATFIGQFFSWYYYWGQGTQVTVSS | low polyreactivity |
| QVQLVESGGGLVQAGGSLRLSCAASGSIFTRNAMGWYRPAPGKERELVAAIRWNGGRTYYADSVKGRFTISRDNAKNTVYLQMNSLKPEDTAVYYCAADYYQRRYVPEYDYWGQGTQVTVSS | low polyreactivity |
| QVQLVESVGGLDQAGVSLRLSSAASGSTFGSYVMGWYRQSPGKERELVASISDGGITNYADSVKGRFTISRDNAKNTVYLQMNSLNPEDTAVYYCAAATRPFSDYTTEGYYYWGQGTQVTVSS | low polyreactivity |
| QVQLVESGGGLVHAGGSLRLSCAASGSIFQYNAMGWYRQAPGKERELVATISSGGSTNYADSVKGRFTISRDNAKNTVYLQMNSLKPEDTAVYYCAAVVIVFYYAPNYWGDIEYGYWGQGTQVTVSS | low polyreactivity |
| QVQLVESGGGLVQAGGSLRLSCAASGRTFASYAMGWYRQAPGKERELVAGITSGGNTYYADSVKGRFTISRDNAKNTVYLQMNSLKPEDTAVFYCAADGVYKGWPTHYDYWGHGTQVTVSS | high polyreactivity |
| QVQLVESGGGLVQAGGSLRLSCADSGSIFVYNAMGWYRQAPGKERELVAAITTGGSTNYADSVKGRFTISRDNAKNTVYLQMISLKPEDTAVYYCAVEGYPGRYRDPGDLYYYWGQGTQVTLSS | low polyreactivity |
| QVQLVESGGCLVQAGGSLRLSCAASGIIFYQNSMGWYRQAPGKERELVAAISRSGGTTYYADSVKGRFTISRDNAKNTVYLLMNSVNPEVTAVYYCAAVGTGSGYYYWGQGTQVTVSS | high polyreactivity |
| QVQLVESGGGLVQAGGSLRLSCAASGRTFGRNAMGWYRQAPGKERELVAAINSGGSTKYADSVKGRFTISRDNAKNTVYLQMNSLKPEDTAVYYCARRGGFSYYYWGQGTQVTVSS | high polyreactivity |
| QVQLEESGGGLVQAGGSLRLSCAASGRSFRKYAMGWYRQAPGKERELVARISWSAGSTYYADSVKGRFKISRDIAMYTVYLQMNSLKPVDTAFYFCIDDGYYRYGNRVLRPGYYCGQGTQVTVSS | high polyreactivity |
| QVQLVESGGGLVQAGGSLRLSCAASGSTFPGNAMGWYRQAPGKERELVAAITSTGTTYYADSVKGRFTISRDNAKNTVYLQMNSLKPEDTAVYYCNADPSPDPSTFDYWGQGTQVTVSS | low polyreactivity |
| QVQLVESGGGLVQAGGSLRLSCAASGSTFIYNAMGWYRLAPGKEREFVAGITGSGGSTYYADSVKGRFTISRDNAKNTVYLQMNSLKPEDTAVNYCNADSPVVNYADLDYWGQGTQVSVSS | low polyreactivity |
| QVQLVESGRGLVQAGGSLRLSCAASGSTFYANTMGWYRQAPGKERELVAAISQSGGSTYYADSVKGRFTISRDNAKNTVYLQMNSLKPEDTAVYYCAARRLPRKERKLYYWGQGTQVTVSS | high polyreactivity |
| QVHLVESGGGLVQAGGSLRLSCAASGYIFHVYAMGWYRQAPGKERELVAAITSSGGSKYYADSVKGRFTISRDNAKNTVYLQMNCLKPEDTAVYYCAARTRYISGRQTGYDYWGQGTQVTVSS | high polyreactivity |
| QVQLQESGGGPVLAGGSLRLSCAASGTIFVRLDMGWYRQAPGKEREFVATIGSASSTYYADSVKGSFTISRDNVKNTVYLQMNSLKPEDTAVYYCAVSAAEQSRHYYWDQGTQVTVSS | low polyreactivity |
| QVQLVESGGGLVQAGGSLRLSCAASGSTFASNAMGWYRQAPGKERELVAAITSRDASTYYADSVKGRFTISRDNAKNTVYLQMNSLKPEDTAVYYCATDGYSPAAFDYWGQGTQVTVSS | low polyreactivity |
| QVQLVESGGGLVQAGGSLRLSCAASGSTFGYYVMGWSRQAPGKERELVAAISWGGGSTYYADSVKGRFTISRDNAQNTVYLQMNSLNPEDTAVYYCNLRDQWWGYDYWGQGTQVTVSS | low polyreactivity |
| QVHLVESGGGLVQAGGSLRLSCAASGRTFCYNAMGWYRPAPGKERELVAAITSSGGGTSYADSVKGRFTISRDNAMNTVYLQMNSLKPEDTAVSYCARVRRYPLRYNYWGQGTQLTVSS | high polyreactivity |
| QVQLVESGGGLVQAGGSLRLSCAASGRIFVHYAMGWYRQAPGKERELVAAITSGSSTNYADSVKGRFTISRDNAKNTVYLQMNSLKPEDTAVYYCAADYSVHMVRDRWFDYWGQGTQVTVSS | low polyreactivity |
| QVQLVESGVGLVQAGGSLRLSCAASGSTFYRYAMGWYRQAPGKERELVAAIRGSGGRTYYADSVKGRFTISRDNAKNTVYLQMNSLKPEDTAVYYCAAYRGVSQKGDYWGQGTQVTVSS | high polyreactivity |
| QVQLVESGGGLVQAGGSLRLSCAASGRTFSGYAMGWYRQAPGKERELVAAINYSDGSTYYADSVKGRFTISRDNAKNTVYLQMNSLKPEDTAVYYCNKVYRYVRYAYDYWGQGTQVTVSS | high polyreactivity |
